In the experiment the target is ItaT(G115D) mutant protein (E. coli HS). In words: crystal structure.

Broadly, the stoichiometry N is a count of units in the complex or per binding partner.

The substance ItaT(G115D) mutant protein (enzyme) displayed a stoichiometry N of 2.

These data come from paper PMC7367177.
